Laboratory results: US20200407456A1 (AP BIOSCIENCES, published 2020)

Key:
[1] = target: T1, CD137 expressed on cells (HEK-293F/CD137 cells); PMA/ionomycin-activated Jurkat cells; CD137 reporter HEK293 … (UniProt Q07011 24-255, limits assumed); test: flow cytometry on HEK-293F/CD137 cells, antibody 50 µg/ml, anti-human Fc-A488
T1 construct: whole, on cells; One entry is used for CD137 on transfected HEK293/293F cells and for CD137 induced on Jurkat cells; also called 293F cells stably expressing CD137; CD137-overexpressing HEK-293F cells

[2] = target: T2, recombinant human CD137-ECD-Fc (APBio Inc.) (human, UniProt Q07011 24-186); test: ELISA on coated human CD137-IgG4 Fc
T2 construct: extracellular domain; Made by APBio; also called CD137-Fc recombinant protein; recombinant CD137/Fc; not shown: IgG4 Fc
T2 sequence (Q07011 24-186): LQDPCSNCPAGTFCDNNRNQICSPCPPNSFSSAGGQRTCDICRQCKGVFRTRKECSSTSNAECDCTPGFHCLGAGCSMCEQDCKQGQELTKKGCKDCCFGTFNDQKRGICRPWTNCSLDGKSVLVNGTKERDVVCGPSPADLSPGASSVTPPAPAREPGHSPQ

T1 sequence (Q07011 24-255 limits assumed): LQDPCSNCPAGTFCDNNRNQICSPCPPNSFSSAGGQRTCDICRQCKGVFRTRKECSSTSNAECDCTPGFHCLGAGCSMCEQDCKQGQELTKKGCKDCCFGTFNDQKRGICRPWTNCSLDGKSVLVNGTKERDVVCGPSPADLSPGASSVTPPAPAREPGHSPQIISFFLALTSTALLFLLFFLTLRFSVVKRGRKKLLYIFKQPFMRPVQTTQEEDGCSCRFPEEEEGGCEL

| binding result [1] | binding result [2] | Binder |
| --- | --- | --- |
| binds | – | anti-CD137 antibody clone 15 (antibody, human IgG4 S228P, lambda, V domains shown, also called CD137 #15; anti-CD137#15) VH: QVQLVQSGAEVKKPGSSVKVSCKASGGTFSSYAISWVRQAPGQGLEWMGRIIPILGIANYAQKFQGRVTITADKSTSTAYMELSSLRSEDTAVYYCASDLYQLLFPYYYGMDVWGQGTTVTVSS VL: QLVLTQPPSASASLGASVTLTCTLSSGYSNYKVDWYQQRPGKGPRFVMRVGTGGIVGSKGDGIPDRFSVLGSGLNRYLTIKNIQEEDESDYHCGADHGSGSNLFWVFGGGTKLTVLG |
| binds | binds | anti-CD137 antibody clone 31 (antibody, human IgG4 S228P, lambda, V domains shown, also called CD137 #31; anti-CD137#31) VH: not shown VL: QSALTQPASVSGSPGQSITISCTGTSSDVGAYNFVSWYQQRPGKAPELMIYDVSDRPSGVSNRFSGSKSGNTASLTISGLQTEDEADYYCSSYTSSITRYVFGTGTKVTVLG |
| binds | binds | anti-CD137 antibody clone 54 (antibody, human IgG4 S228P, lambda, V domains shown, also called CD137 #54; CD137#54) VH: QVQLVQSGAEVKKPGSTVKVSCKASGGTFSSYAISWVRQAPGQGLEWMGRIIPILGIANYAQKFQGRVTITADKSTSTAYMELSSLRSEDTAVYYCASPPYYDSSGYYPLGAFDIWGQGTMVTVSS VL: SYELTQPPSVSVSPGQTASITCSGDKLGEKYASWYQQKAGQSPILVIYQDSKRPSGIPERFSGSNSGNTATLTISGLQAGDEADYYCQAWDGSSTYVFGTGTKVTVFG |
